# Assay results taken from patent publication KR20230010676A.
# Biological target: SARS-CoV-2 스파이크 D19 (VSV 슈도바이러스) (SARS-CoV-2) (UniProt P0DTC2)
# Test: cell-based or functional assay
substance,measurement,value
S2D106-LS (antibody),"EC50 (neutralisation, interpolated)",3.6 ng/mL
same,"EC90 (neutralisation, interpolated)",15.4 ng/mL
same,IC50 (neutralisation),3.38 ng/mL
